Assay results published in US20170240628A1 (CELLMID, published 2017).
Changes are numbered by the printed parent chain.

T1: recombinant human midkine (huMK) (human, UniProt P21741 21-143)
T1 sequence (looked up): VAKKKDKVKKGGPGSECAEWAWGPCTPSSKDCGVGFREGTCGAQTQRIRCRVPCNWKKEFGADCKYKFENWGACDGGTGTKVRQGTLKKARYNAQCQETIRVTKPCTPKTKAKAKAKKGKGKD

T2: recombinant murine midkine (muMK) (murine, UniProt P12025 23-140)
T2 construct: also called murine MK; Murine MK
T2 sequence (looked up): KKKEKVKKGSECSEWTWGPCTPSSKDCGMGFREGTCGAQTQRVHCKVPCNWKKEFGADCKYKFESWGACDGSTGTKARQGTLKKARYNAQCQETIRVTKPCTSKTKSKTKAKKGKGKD

B1: IP14-H6L8 (antibody, V domains shown)
VH: QVQLVQSGGGLVKPGHSLRLSCAASGQSFSSYWMNWVRQAPGKGLEWIGMIHPSDSETILNQKFKDKATLSVDIAKNSAYLQMNSLRAEDTAVYYCSSWSAKRGDFWGQGTLVTVSS
VL: DIVLTQSPATLSLSPGERATLSCRASESISNNLHWYQQKPHQAPRLLIYYASQSISGVPARFSGSGSGTDFTLTISSVEPEDFAVYYCQQSNSWPLTFGQGTKVEIKR
notes: also called hIP14-H6L8; Hv6 Lv8
B2: IP14-H5L8 (antibody, V domains shown)
VH: B1 VH with K13Q, H16G, K43Q, S71T, A75S, S78T
VL: B1 VL
notes: also called hIP14-H5L8; Hv5 Lv8
B3: IP14-H6L3 (antibody, V domains shown)
VH: B1 VH
VL: B1 VL with H41G, V58I, S67P, V78L, Q100G, V104L
notes: also called hIP14-H6L3; Hv6 Lv3
B4: murine IP14 precursor antibody (antibody, V domains shown)
VH: QVQLQQPGAELVRPGHSVKLSCKASGQSFSSYWMNWVRQRPGQGLEWIGMIHPSDSETILNQKFKDKATLTVDISSNTAYMQLSSPTSEDSAVYFCSSWSAKRGDFWGQGTTLTVSS
VL: DIVLTQSPATLSVTPGDSVNLSCRASESISNNLHWYQQKSHESPRLLIKYASQSISGIPSRFSGSGSGTDFNLSVNSVETEDFGMYFCQQSNSWPLTFGAGTKLELKR
notes: Murine monoclonal antibody; also called mIP14; mAb IP14
B5: IP14-H6L7 (antibody, V domains shown)
VH: B1 VH
VL: B1 VL with T20N, T72N
notes: also called Hv6 Lv7
B6: mouse-human chimeric IP14 antibody (antibody, V domains shown)
VH: B4 VH
VL: B4 VL
notes: also called chimeric antibody; Hv0 Lv0
B7: IP14-H3L3 (antibody, V domains shown)
VH: QVQLVQSGAEVKKPGASVKVSCKASGQSFSSYWMNWVRQAPGQGLEWMGMIHPSDSETILNQKFKDKVTMTRDTSTSTVYMELSSLRSEDTAVYYCARWSAKRGDFWGQGTLVTVSS
VL: B1 VL with H41G, V58I, S67P, V78L, Q100G, V104L
notes: also called Hv3 Lv3
B8: IP14-H3L6 (antibody, V domains shown)
VH: B7 VH
VL: EIVLTQSPSTLSASVGDRVNITCRASESISNNLHWYQQKPHKAPKLLIYYASQSISGVPSRFSGSGSGTEFNLTISSVQPDDFATYYCQQSNSWPLTFGQGTKVEIKR
notes: also called Hv3 Lv6

Molecular target: T1, recombinant human midkine (huMK)
Experiment: cell-based or functional assay

% Inhibition of UMR106 cell migration, Assay 4 [%] | % Inhibition of UMR106 cell migration, Assay 5 [%] | % Inhibition of UMR106 cell migration, Assay 6 [%] | Mean % Inhibition of UMR106 cell migration [%] | Mean Cells/Field, Assay 4 (UMR106 migration, antibody 100 ug/mL, MK-17 20 µg/mL) [cells/field] | Mean Cells/Field, Assay 5 (UMR106 migration, antibody 100 ug/mL, MK-17 20 µg/mL) [cells/field] | Mean Cells/Field, Assay 6 (UMR106 migration, antibody 100 ug/mL, MK-17 20 µg/mL) [cells/field] | Binder
44 | 24 | 48 | 38.7 | 27 | 32 | 22 | B1
60 | 31 | 31 | 40.7 | 19 | 29 | 29 | B2
48 | 40 | 45 | 44.3 | 25 | 25 | 23 | B3
6 | 10 | 38 | 18 | 45 | 38 | 26 | B4

Molecular target: T2, recombinant murine midkine (muMK)
Experiment: ELISA, plate coated with muMK
Method: (§1) The binding specificity and affinity of the humanised anti-MK antibodies to recombinant human MK (huMK) and murine MK (muMK) was assessed by ELISA. ELISA plates (Nunc Immuno MaxiSorp 96 well flat-bottom were coated with 100 uL of 2 ug/mL of either huMK or muMK in 2% BSA/PBS (overnight at room temperature). After washing, blocking (1 h at 37° C.), and washing again, the humanised anti-MK and chimeric antibodies described in Example 1 were analysed for binding to huMK or muMK at concentrations ranging between 3 μg/ml and 0.00004 μg/ml in 2% BSA/PBS (1 h at 37° C.). After washing, the binding of antibody was detected with goat anti-mouse IgG (Fab specific)-HRP conjugate (Sigma, Cat. No. A9917) and SigmaFast OPD substrate (Sigma, Cat. No. P9187). The reaction was stopped with 3 M HCl, absorbance read at 490 nm on a Dynex Technologies MRX TC II plate reader and the binding curves plotted. Binding affinity data for the humanised anti-MK antibodies to huMK and muMK are presented in Table 6 and Table 7 respectively, and in FIG. 3.

EC50 [nM] | Binder
0.091 | B1
0.051 | B5
0.05 | B2
0.048 | B3
0.13 | B6

Molecular target: T1, recombinant human midkine (huMK)
Experiment: ELISA, plate coated with huMK
Method: as §1

EC50 [nM] | Binder
0.042 | B1
0.068 | B5
0.06 | B2
0.07 | B3
5.79 | B7
5.7 | B8
0.104 | B6

Molecular target: T2, recombinant murine midkine (muMK)
Experiment: ELISA by the methods of Example 2 (printed as KD)
Method: as §1
(§2) KD values for hIP14-H5L8, hIP14-H6L3 and hIP14-H6L8 was then compared with the KD values obtained for the corresponding murine IP14 precursor antibody and the chimeric antibody using the methods described in Example 2. As is apparent from Table 7, the humanised mIP14 antibodies designated hIP14-H5L8, hIP14-H6L3, and hIP14-H6L8 were each shown to have better binding affinity than the murine IP14 precursor antibody and the chimeric antibody for huMK and muMK. Based on this finding, these candidate antibodies were produced to 100 mg scale to enable further testing in functional assays to determine biological function.

Kd [nM] | Binder
0.091 | B1
0.05 | B2
0.048 | B3
0.166 | B4
0.13 | B6

Molecular target: T1, recombinant human midkine (huMK)
Experiment: ELISA by the methods of Example 2 (printed as KD)
Method: as §1, §2

Kd [nM] | Binder
0.042 | B1
0.06 | B2
0.07 | B3
0.144 | B4
0.104 | B6

Molecular target: T2, recombinant murine midkine (muMK)
Experiment: ELISA on plate-coated muMK, antibody titrated up to 3 µg/ml, Abs 450nm on the sheet's axis [continued), panel IP14 Hv3 Murine Midkine]
Method: as §1, with “The reaction was stopped with 3 M HCl, absorbance read at 490 nm on a Dynex Technologies MRX TC II plate reader and the binding curves plotted.” left out

binding result | Binder
binds | B7
binds | B8
